The target in data set [1] is T1, ELAVL1/HuR (rHuR) (human, UniProt Q15717 1-326). The data set can be described thus: AlphaScreen saturation binding; RNA titrated against 1 nM HuR; R2 0.91; Methods print 0.207±0.024 without unit; 25 mM HEPES pH 7.4, 100 mM NaCl, 0.1% BSA, room temperature, 30 min then 90 min with donor beads. The settings on record: protein: recombinant; tags: C-terminal Myc-His (vector section) or MYC/DDK (assay section, TP301562); label: biotin (BITEG); single strand.

Data set [2] concerns the target T1, ELAVL1/HuR (rHuR). Description: AlphaScreen saturation binding; RNA titrated against 1 nM HuR; R2 0.97; Methods print 0.087±0.021 without unit; 25 mM HEPES pH 7.4, 100 mM NaCl, 0.1% BSA, room temperature, 30 min then 90 min with donor beads. The settings on record: protein: recombinant; tags: C-terminal Myc-His (vector section) or MYC/DDK (assay section, TP301562); label: biotin (BITEG); single strand. (In general: In Alpha technology, singlet oxygen from a donor bead excites a nearby acceptor bead.)

As a reminder, the Kd is the constant that tells how readily two partners part at equilibrium.

T1 sequence (Q15717 whole entry): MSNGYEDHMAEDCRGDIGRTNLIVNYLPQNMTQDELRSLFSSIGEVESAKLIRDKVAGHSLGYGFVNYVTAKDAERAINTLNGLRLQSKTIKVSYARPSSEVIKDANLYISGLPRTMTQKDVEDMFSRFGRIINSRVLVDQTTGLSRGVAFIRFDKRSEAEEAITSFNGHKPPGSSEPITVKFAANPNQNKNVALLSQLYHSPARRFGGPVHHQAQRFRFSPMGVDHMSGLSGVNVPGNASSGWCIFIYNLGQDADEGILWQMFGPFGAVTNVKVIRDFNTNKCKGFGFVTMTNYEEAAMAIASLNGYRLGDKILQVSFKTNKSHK

Consider GUUUUAAAUGACUCAUAGGUCCCUGACAUUUAGUUGAUU (ssRNA) [SQSTM1/p62 ARE probe], for which the Kd in data set [1] was 30.9 ± 13.2 nM.
Regarding AUUAUUUAUUAUUUAUUUAUUAUUUA (ssRNA) [TNFalpha ARE probe], in data set [2], the Kd worked out at 3.83 ± 0.69 nM.

For the origin of these results see article PMC3726683, “Autophagy Activation Clears ELAVL1/HuR-Mediated Accumulation of SQSTM1/p62 during Proteasomal Inhibition in Human Retinal Pigment Epithelial Cells”.
